Test [1] deals with moFcgRIV. The test can be described thus: BLI. In general terms: BLI is a label-free optical method that tracks binding on a fibre tip over time.
The target in test [2] is moFcRn. The test can be described thus: BLI.
The target in test [3] is moFcgRIIb. The test can be described thus: -; reported.
Test [4] deals with moFcgRIV. The test can be described thus: -; reported.
Test [5] concerns the target moFcgRIII. Description: -; reported.
Test [6] concerns the target moFcRn. Description: -; reported.

In general, Kd refers to the concentration at which binding is half-saturated. The low end stands for a tighter complex, the high end for a looser complex. For the substance LJM716 hIgG1, the equilibrium dissociation constant (Kd) in test [1] turned out to be 701 nM; in test [2], 12.8 nM.
Turning to Seribantumab hIgG2, in test [2], the Kd worked out at 6.69 nM.
In the case of hIgG1, the Kd in test [3] turned out to be 1100 nM; in test [4], 280 nM; in test [5], 9300 nM; in test [6] it was 72 nM.
hIgG2: the results for the Kd in test [3], in test [5] and in test [6] were 7900 nM, 9700 nM and 63 nM, respectively.
In the case of hIgG3, the Kd amounted to 700 nM in test [3], 170 nM in test [4], 1300 nM in test [5] and 230 nM in test [6].
Consider hIgG4, for which the Kd worked out at 11000 nM in test [3], 26000 nM in test [4], 21000 nM in test [5] and 116 nM in test [6].
On to mIgG1, for which the figures for the Kd in test [3], in test [5] and in test [6] were 301 nM, 3200 nM and 1160 nM, respectively.
Regarding mIgG2a, the Kd in test [3] was 2390 nM; in test [4], 34.5 nM; in test [5] it was 1460 nM; in test [6], 490 nM.
For the substance mIgG2b, the Kd worked out at 448 nM in test [3], 59 nM in test [4], 1560 nM in test [5] and 545 nM in test [6].
In turn, mIgG3 showed a Kd in test [6] of 140 nM.

The record behind these values is US20210024651A1.
